Source: article PMC12460018

Columns and labels:
[1] = molecular target: plasma-derived von Willebrand factor, highly purified in-house control preparation (human) (UniProt P04275); assay: ELISA + SPR; VWF:FVIIIB, measured by an ELISA combined with a chromogenic assay (ECA) and by Biacore; the table does not say which gave the percent
[2] = molecular target: recombinant von Willebrand factor, furin-matured (human) (UniProt P04275); assay: as above

factor VIII, P00451 20-2351
VWF:FVIII binding capacity (%) [1]: 109%
VWF:FVIII binding capacity (%) [2]: 108%
